Patent US11428689B2, “Methods and uses for remotely triggered protease activity measurements” (Massachusetts Institute of Technology, priority 2016, dated 2022)
Where no end group is shown, it is not given here. [ ]: non-standard residue; d: D form. FAM = fluorescein

Legend:
MMP14 = biological target: T1, MMP14 (Homo sapiens, UniProt P50281); test: In vitro recombinant protease assay (fluorescence dequenching of NP-bound substrate); assay type: biochemical; settings: unmodified substrate on particle
T1 construct: purchased Enzo Life Sciences
Method: (§1) C1-NP complexes sensitive to MMP cleavage were mixed with 1% (wt/vol) BSA (Sigma) and incubated with recombinant proteases (MMPs and ADAMs: Enzo Life Sciences; Clotting proteases: Haematologic Technologies) in a final volume of 100 μL in enzyme-specific buffers (MMP buffer: 50 mM Tris, 150 mM NaCl, 5 mM CaCl2, 1 μM ZnCl2, pH 7.5; Clotting proteases: PBS) in a 384-well plate for time-lapse fluorimetry to measure dequenching from homoquenched peptides at 37° C. (SpectroMax Gemini EM Microplate Reader). For the metalloproteinase, enzymes were diluted 1:10 in enzyme specific buffer, and for clotting proteases, enzymes were diluted 1:100. Cleavage heatmap was generated using GENE-E (Broad Institute). Michaelis-Menten constants were determined by assessing initial cleavage velocities at different substrate concentrations. The MMP inhibitor Marimatstat (Tocris) was added to the mixture at 100 μM final concentration. To identify the cleavage position by MMP9, C1-NPs were incubated with MMP9 overnight, and the N-terminal cleavage fragment was isolated and analyzed by MALDI. The sequence corresponding to the dominant peak was identified, and the final amino acid was in that sequence represents the P1 position (toward the N-terminal end from scissile bond). For protease resistance assays, various DMNPE: peptide ratios were reacted overnight and purified prior to being added to proteases.

MMP7 = biological target: T2, MMP7 (Homo sapiens, UniProt P09237); test: as above; assay type: biochemical; settings: unmodified substrate on particle
T2 construct: purchased Enzo Life Sciences
T2 sequence (P09237 95-267): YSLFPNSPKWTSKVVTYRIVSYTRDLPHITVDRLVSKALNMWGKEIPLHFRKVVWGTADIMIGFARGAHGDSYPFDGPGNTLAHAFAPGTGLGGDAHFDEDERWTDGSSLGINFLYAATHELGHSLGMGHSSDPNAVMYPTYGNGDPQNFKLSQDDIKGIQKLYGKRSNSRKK
Method: as §1

MMP1 = biological target: T3, MMP1 (Homo sapiens, UniProt P03956); test: as above; assay type: biochemical; settings: unmodified substrate on particle
T3 construct: purchased Enzo Life Sciences
T3 sequence (P03956 100-469): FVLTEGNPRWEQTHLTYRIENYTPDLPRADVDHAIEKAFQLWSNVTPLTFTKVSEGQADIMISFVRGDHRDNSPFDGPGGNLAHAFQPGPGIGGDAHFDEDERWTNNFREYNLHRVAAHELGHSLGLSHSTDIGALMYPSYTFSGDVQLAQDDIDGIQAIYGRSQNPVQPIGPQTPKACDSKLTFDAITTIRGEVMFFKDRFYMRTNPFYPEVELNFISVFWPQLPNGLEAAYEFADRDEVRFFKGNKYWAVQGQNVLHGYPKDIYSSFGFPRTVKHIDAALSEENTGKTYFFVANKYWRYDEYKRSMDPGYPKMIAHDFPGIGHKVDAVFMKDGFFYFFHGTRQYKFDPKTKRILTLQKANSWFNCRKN
Method: as §1

LS174T cells [1] = test: Secreted protease activity assay, conditioned media; assay type: cell-based, human; settings: conditioned media from LS174T cells
Method: (§2) LS174T and CCD-18Co (ATCC CRL-1459) cells were cultured in Eagle's Minimal Essential Medium (ATCC) supplemented with 10% FBS (Gibco) and 1% penicillin-streptomycin (CellGro). Cells were passaged when confluence reached 80%. To isolate secreted proteases, after cells were plated, cells were washed and replaced in serum-free media. Conditioned media was collected 24 h later and exposed to C1-NPs to measure fluorescence dequenching.

[2] = NP stability in physiological solution (lack of fluorescent dequenching); assay type: in vitro ADME; settings: physiological solution (human control serum, FIG. 7C), 37° C., 24 h
Method: Next, whether STREAMs could provide both spatial and temporal control of MMP activity measurements was tested. First, whether the veiled NPs would block protease cleavage until activation by light was evaluated. Due to homoquenching of the fluorescent substrates once assembled on the NPs, protease activity can be monitored by measuring increases in sample fluorescence that occurs from peptide proteolysis (FIG. 7B). NPs were stable in physiological solution at 37° C. over 24 h, as confirmed by a lack of fluorescent dequenching (FIG. 7C).

LS174T cells [3] = test: 3D collagen cancer tissue model, peptide fluorescence in supernatant; assay type: cell-based, human
Method: Next, the activation of the nanosensors in a 3D ECM environment was probed. Forty LS174T cells were embedded in collagen I together with veiled or unmodified nanosensors (FIG. 4A). The constructs were monitored for protease activity by collecting the supernatant and measuring liberated peptide fragments under different conditions: L-amino acid peptide substrates were compared to D-amino acid counterparts to measure nonspecific background, and the role of DMPNE veiling was measured.
In order to correlate regions of light-activation with protease activity measurements, light-activated rhodamine dye was included to visualize regions exposed to light (FIG. 12A). To explore the ability to monitor protease activity with spatial and temporal control, only the left half of the gels was illuminated.
LS174T cells were encapsulated in 2.5 mg/mL collagen hydrogels (rat tail collagen type I, Corning). Imaging was done on Nikon Eclipse Ti Inverted Microscopes and Zeiss Stereoscope Discovery v20. When protease activity was measured, surrounding media was serum-free.

CCD-18Co cell line = test: Secreted protease activity assay, conditioned media; assay type: cell-based; settings: conditioned media from CCD-18Co cells
Method: as §2

MMP13 = biological target: T4, MMP13 (Homo sapiens, UniProt P45452); test: In vitro recombinant protease assay (fluorescence dequenching of NP-bound substrate); assay type: biochemical; settings: for cleavage of substrate by MMP13: unmodified substrate on particle
T4 construct: purchased Enzo Life Sciences
Method: as §1
(§3) Light activation of peptides for biochemical studies was performed using a CL-1000 UV Cross-linker (UVP, 8 mW/cm^2). Power density was measured by an OAI 306 UV power meter at 365 nm. Typical exposure time for these studies was 10-30 min. For activation in cell and animal studies, Lumen Dynamics UV system with 365 nm fiber light guide was used (OmniCure 1000, 200 mW/cm^2). For in vivo activation at the tumor site, mice were anesthetized, and the light was guided through an optical cable and placed approximately 3 cm from the flank tumor. Each flank tumor was exposed for 30 s.

MMP9 = MMP9 (Homo sapiens, UniProt P14780); test: as above; assay type: biochemical; design: purchased Enzo Life Sciences
Method: as §1, §3

MMP9, sequence (P14780 94-707, species assumed): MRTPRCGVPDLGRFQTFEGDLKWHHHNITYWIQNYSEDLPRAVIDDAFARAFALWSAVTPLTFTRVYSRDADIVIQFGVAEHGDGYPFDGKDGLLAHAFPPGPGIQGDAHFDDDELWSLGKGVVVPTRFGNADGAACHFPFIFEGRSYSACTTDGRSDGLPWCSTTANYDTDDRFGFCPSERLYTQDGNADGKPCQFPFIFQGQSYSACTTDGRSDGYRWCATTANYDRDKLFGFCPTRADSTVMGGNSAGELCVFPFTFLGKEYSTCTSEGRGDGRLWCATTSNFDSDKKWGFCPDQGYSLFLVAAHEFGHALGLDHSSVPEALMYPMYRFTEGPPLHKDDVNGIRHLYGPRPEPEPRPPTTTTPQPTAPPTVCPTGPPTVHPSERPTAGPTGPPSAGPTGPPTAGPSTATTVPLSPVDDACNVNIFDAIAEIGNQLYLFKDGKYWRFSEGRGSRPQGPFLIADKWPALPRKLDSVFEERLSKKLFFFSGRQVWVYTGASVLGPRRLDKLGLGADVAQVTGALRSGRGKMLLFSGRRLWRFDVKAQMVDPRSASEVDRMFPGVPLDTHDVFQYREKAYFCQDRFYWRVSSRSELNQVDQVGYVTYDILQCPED

Q: Which results are given for “C1-NPs: Iron oxide NPs functionalized with fluorescein-conjugated peptide substrate C1 at surface valency >20; in vitro protease sensor ({FAM}-[dS][dK]PLGLEEAGC(iron oxide nanoparticle); not fully specified; printed as FAM-sk-PLGLEEA-GC; also: C-terminal Cys coupled to iron oxide nanoparticle)”?
A: cleavage of substrate by MMP14 (MMP14): able to cleave the substrate; cleavage of substrate by MMP7 (MMP7): significantly cleaved; cleavage of substrate by MMP1 (MMP1): significantly cleaved; cleavage by cell-secreted proteases (LS174T cells [1]): peptide cleavage and a dose-dependent increase in fluorescence; stability (lack of fluorescent dequenching) [2]: stable; liberated peptide fluorescence in supernatant (LS174T cells [3]; first day, no light): significantly more fluorescent peptides than those with D-amino acid NPs; peptide fluorescence in supernatant after light exposure (LS174T cells [3]; left half of gels illuminated, 24 h, 30 s at 200 mW/cm^2): did not exhibit significant changes in peptide fluorescence; cleavage by cell-secreted proteases (CCD-18Co cell line): significantly lower compared to LS174T cells; catalytic efficiency (MMP13; MMP13, Michaelis-Menten fit): > 10^4 M^−1 s^−1; cleavage of substrate by MMP13 (MMP13): most efficient; cleavage of substrate by MMP13 (MMP13; listed as C1-NP): significantly cleaved; catalytic efficiency (MMP9; MMP9, Michaelis-Menten fit): > 10^3 M^−1 s^−1; cleavage of substrate by MMP9 (MMP9; unmodified substrate on particle): significantly cleaved
